Measured values as given in patent US20220033501A1 (SHANGHAI PHARMAEXPLORER, published 2022).
Positions count from the first letter of the chain named.

B1: 18D2H2 (TIM-3 antibody purified from hybridoma, chimeric antibody of Example 2) (antibody, V domains shown)
VH: EVQLVESGGDLVQPGGSLRLSCAASGFTFSTYWMTWVRQAPGRGLEWVANIKQDGSAKYYVDSVKGRFTLSRDDAKNSLYLQMNSLRAEDTAVYYCARGSNWFDYWGQGTLVTVSS
VL: ETVMTQSPATLSVSPGERATLSCRANQNVYSNLAWYQQKPGQAPRLLIYDASTRATGFPARFSGSGSGTEFTLTISSLQSEDFAVYYCQQYNNWPLTFGGGTKVEIK
notes: From hybridoma of Harbour H2L2 transgenic mice: human variable regions, rat constant regions
B2: 34B6D8 (TIM-3 antibody purified from hybridoma, chimeric antibody of Example 2) (antibody, V domains shown)
VH: B1 VH with D10G, R43K, G44R, D54G, S56G, A57D, L70I, R72T, D74N, Y105P
VL: EIVMTQSPATLSMSPGERATLSCRASQSVYDNLAWYQQKPGQAPRLLIYGASTRATGIPARFSGSGSGTEFTLTISSLQSEDFALYYCQQYTHWPITFGQGTRLEIK
notes: as for B1
B3: 39E5H1 (TIM-3 antibody purified from hybridoma, chimeric antibody of Example 2) (antibody, V domains shown)
VH: EVQLVESGGGLVQPGGSLRLSCAASGFTFSSYWMSWVRQAPGKGLEWVANIKRGGSERYYVDSVKGRFTISGDNAKNSVYLQMNSLRAEDTAVYYCARGSNWFDPWGQGTLVTVSS
VL: B2 VL with I2T, T10I, M13V, D31S, P40L, G50D, L85V, T92N, H93N
notes: as for B1
B4: 57F4E5 (TIM-3 antibody purified from hybridoma, chimeric antibody of Example 2) (antibody, V domains shown)
VH: EVQLVESGGGLVQPGGSLRLSCAASGFTFSSYWMSWVRQAPGKGLEWVANIKQDGSEKYYVDSVKGRFTISRDSAKNSLYLQMNSLRAEDTAMYFCARDSNFFDYWGQGTLVTVSS
VL: B1 VL with N26S, N28S, Y30S, Q38R, D50F, A51S, F58I
notes: as for B1
B5: 134H3G6 (TIM-3 antibody purified from hybridoma, chimeric antibody of Example 2) (antibody, V domains shown)
VH: EVQLVESGGGLVQPGGSLRLSCAASGFTFSNSWMTWVRQAPGKGLEWVANIKQAGTEKYYVDSVKGRFTISRDNAKNSLYLQMNSLRAEDTAVYYCNSGSNYFDYWGQGTLVTVSS
VL: B1 VL with T2I, N26R, V29F, D50G, F58I
notes: as for B1
B6: 215A8F2 (TIM-3 antibody purified from hybridoma, chimeric antibody of Example 2) (antibody, V domains shown)
VH: QVQLQQWGAGLLKPSETLSLTCTVYGGSFSGYYWNWIRQPPGKGLEWLGEINHSGSTNYNPSLKRRVTISVDTSKNQFSLKLSSVTAADTAVYYCARVYYYGPFDFWGQGTLVTVSS
VL: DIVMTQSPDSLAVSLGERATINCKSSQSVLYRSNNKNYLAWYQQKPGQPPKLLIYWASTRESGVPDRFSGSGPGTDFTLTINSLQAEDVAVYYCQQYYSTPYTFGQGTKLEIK
notes: as for B1
B7: 7A4F10 (TIM-3 antibody purified from hybridoma, chimeric antibody of Example 2) (antibody, V domains shown)
VH: EVQLLESGGGLVQPGGSLRLSCAASGFTFRTHLISWVRQAPGKGLEWVAAITGSGGSTYYADSVKGRFIISRDNSKNTLFLQMNSLRAEDTAVYYCAKDGGSGSYDDFWGQGTLVTVSS
VL: ETVLTQSPVTLSLSPGERATLSCRASQSVGSYLAWYQQKPGQAPRLLIYDASNRATGIPARFSGSGSGTDFTLTISSLEPEDFAVYYCQQRSNWPPTFGQGTKVEIK
notes: as for B1

Target: T1, monkey TIM-3 protein with hFc tag (cTIM-3-hFc protein) (monkey; human)
T1 construct: Made in HEK293 cells; also called monkey TIM-3 extracellular domain protein; not shown: human IgG Fc fragment (hFc) of the pCpC vector
T1 chain: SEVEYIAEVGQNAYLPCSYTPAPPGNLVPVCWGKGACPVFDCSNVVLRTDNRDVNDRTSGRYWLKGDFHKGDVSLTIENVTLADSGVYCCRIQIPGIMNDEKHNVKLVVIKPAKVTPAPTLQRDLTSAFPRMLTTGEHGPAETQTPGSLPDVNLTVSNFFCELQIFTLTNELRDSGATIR
Assay: ELISA, coated cTIM-3-hFc; antibody 66.667 nM
Excerpt: (§1) The amino acid sequence 22-200 of the extracellular domain of the human TIM-3 protein described in the step of Example 1 (as shown in SEQ ID NO. 71 in the sequence listing) was cloned into a pCpC vector having a human IgG Fc fragment (hFc), and transfected into HEK293 cells. The cell culture medium was collected, and purified to obtain the human TIM-3 protein with hFc tag (herein referred to as hTIM-3-hFc protein). The amino acid sequence 22-201 of the extracellular domain of the monkey TIM-3 protein (as shown in SEQ ID NO. 72 in the sequence listing) was cloned into a pCpC vector having a human IgG Fc fragment (hFc), and transfected into HEK293 cells. The cell culture medium was collected, and purified to obtain the monkey TIM-3 protein with hFc tag (herein referred to as cTIM-3-hFc protein). […] The cell culture medium was collected, and purified to obtain the murine TIM-3 protein with hFc tag (herein referred to as mTIM-3-hFc protein). Purified human, monkey, and mouse TIM-3 extracellular domain proteins (hTIM-3-hFc, cTIM-3-hFc, and mTIM-3-hFc) were diluted with PBS to a final concentration of 1.0 μg/ml and then added to a 96-well ELISA plate with 100 μl per well. The plate was sealed with plastic film and incubated overnight at 4° C. The plate was washed 4 times with the plate washing solution (PBS+0.01% Tween20) on the next day, and added with the blocking solution (PBS+0.01% Tween20+1% BSA) and sealed at room temperature for 1-2 hours. The blocking solution was poured out. 50-100 μl of the antibody sample to be tested was added to each well. The plate was incubated at 37° C. for 1-2 hours, and washed 2-3 times with plate washing solution (PBS+0. 01% Tween20). HRP (horseradish peroxidase) labeled secondary antibody was added. The plate was incubated at 37° C. for 1-2 hours, and washed 2-3 times with plate washing solution (PBS+0. 01% Tween20). […] of TMB substrate was added to each well. After incubated at room temperature for 15-30 minutes, the plate was added with […] stop solution (1.0N HCl) to each well. An ELISA plate reader (TiterMax 384plus, Molecular Device) was used to read the A450 nm value.
B1 showed an OD450 of 3.44.
Binder B2 has an OD450 of 3.52.
Binder B3 has an OD450 of 3.47.
Work on B4 yielded an OD450 of 3.47.
For B5, the OD450 was 3.43.
B6 showed an OD450 of 3.49.
With B7 the OD450 was 3.46.

These binders were tested against T2, human TIM-3 protein with hFc tag (hTIM-3-hFc protein) (human, UniProt Q8TDQ0 22-200) (assay: ELISA, coated hTIM-3-hFc; antibody 0.6667 nM).
T2 construct: also called immunogen 1; human TIM-3 extracellular domain protein; not shown: human IgG Fc fragment (hFc) of the pCpC vector
T2 sequence: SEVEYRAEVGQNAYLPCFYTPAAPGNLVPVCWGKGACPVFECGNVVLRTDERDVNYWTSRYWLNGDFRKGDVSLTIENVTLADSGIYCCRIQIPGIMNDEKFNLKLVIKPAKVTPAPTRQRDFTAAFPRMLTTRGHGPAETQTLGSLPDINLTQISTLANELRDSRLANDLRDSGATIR
Excerpt: as §1
B1 showed an OD450 of 1.33.
Work on B2 yielded an OD450 of 3.41.
For B3, the OD450 was 3.41.
With B4 the OD450 was 3.31.
With B5 the OD450 was 0.69.
In the case of B6, the OD450 is reported as 3.06.
With B7 the OD450 was 0.86.

Target: T1, monkey TIM-3 protein with hFc tag …
Assay: ELISA, coated cTIM-3-hFc; antibody 0.6667 nM
Excerpt: as §1
For B1, the OD450 was 1.89.
B2 showed an OD450 of 3.44.
B3 gave an OD450 of 3.41.
For B4, the OD450 was 3.45.
With B5 the OD450 was 1.22.
B6 showed an OD450 of 3.26.
In the case of B7, the OD450 is reported as 1.35.

Target: T3, murine TIM-3 protein with hFc tag (mTIM-3-hFc protein) (mouse; human, UniProt Q8VIM0 29-191)
T3 construct: Made in HEK293 cells; also called mouse TIM-3 extracellular domain protein; not shown: human IgG Fc fragment (hFc) of the pCpC vector
T3 chain: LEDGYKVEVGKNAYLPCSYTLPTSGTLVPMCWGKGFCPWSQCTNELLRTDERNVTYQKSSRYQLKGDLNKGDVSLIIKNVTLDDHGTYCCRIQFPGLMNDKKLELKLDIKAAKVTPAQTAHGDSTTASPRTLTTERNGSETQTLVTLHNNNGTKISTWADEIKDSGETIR
Assay: ELISA, coated mTIM-3-hFc; antibody 0.0001 nM
Excerpt: as §1
B1 was tested, and the OD450 was 0.64.
B2 was tested, and the OD450 was 0.62.
Work on B3 yielded an OD450 of 0.64.
For B4, the OD450 was 0.63.
Work on B5 yielded an OD450 of 0.64.
For B6, the OD450 was 0.63.
With B7 the OD450 was 0.65.

Target: T3, murine TIM-3 protein with hFc tag …
Assay: ELISA, coated mTIM-3-hFc; antibody 0 nM (blank)
Excerpt: as §1
With B1 the OD450 was 0.62.
With B2 the OD450 was 0.66.
For B3, the OD450 was 0.62.
B4 was tested, and the OD450 was 0.64.
In the case of B5, the OD450 is reported as 0.64.
B6 showed an OD450 of 0.63.
B7 showed an OD450 of 0.63.
